What was measured:
[1] = target: 16K hPRL binding sites in human placental membrane fractions (human); assay: Scatchard analysis, radioligand binding, first trimester human placental membranes
[2] = target: 16K hPRL binding sites in human placental membrane fractions (human); assay: Scatchard analysis, radioligand binding, third trimester human placental membranes
[3] = target: 16K hPRL binding sites in human placental membrane fractions (human); assay: Scatchard analysis, radioligand binding, second trimester human placental membranes
[4] = target: 16K hPRL binding sites in human placental membrane fractions (human); assay: specific binding of 100 pM 125I-16K rPRL (counts displaced by 400 nM 16K hPRL), first trimester placental membranes, n=4
[5] = target: 16K hPRL binding sites in human placental membrane fractions (human); assay: specific binding of 100 pM 125I-16K rPRL (counts displaced by 400 nM 16K hPRL), third trimester placental membranes, n=3
[6] = target: 16K hPRL binding sites in human placental membrane fractions (human); assay: specific binding of 100 pM 125I-16K rPRL (counts displaced by 400 nM 16K hPRL), second trimester placental membranes, n=3

16K N-terminal human prolactin (ligand) was tested. Which maximal binding (Bmax) (fmol/µg protein) [1] did it give?
The maximal binding (Bmax) (fmol/µg protein) was 3.19.

And the maximal binding (Bmax) (fmol/µg protein) [2]?
Its maximal binding (Bmax) (fmol/µg protein) is 775.

And the maximal binding (Bmax) (fmol/µg protein) [3]?
Its maximal binding (Bmax) (fmol/µg protein) is 630.

For “125I-16K rPRL (rat 16K prolactin, radioiodinated) (from UniProt P01237 30-174) (ligand)”, which maximal specific binding (cpm/5 µg protein) [4] is on record?
The maximal specific binding (cpm/5 µg protein) was 357.

What about the maximal specific binding (cpm/5 µg protein) [5] of the same substance?
Its maximal specific binding (cpm/5 µg protein) is 4040.

What about the maximal specific binding (cpm/5 µg protein) [6] of the same substance?
The maximal specific binding (cpm/5 µg protein) was 1780.

From patent US20040077054A1
